The labels stand for the following.
B1: Leucine-rich repeat transmembrane protein FLRT2 (Mus musculus), Q8BLU0 (parent)
chain: MGLQTTKWPGRGAFILKFWLIISLGLYLQVSKLLACPSVCRCDRNFVYCNERSLTSVPLGIPEGVTVLYLHNNQINNAGFPAELHNVQSVHTVYLYGNQLDEFPMNLPKNVRVLHLQENNIQTISRAALAQLLKLEELHLDDNSISTVGVEDGAFREAISLKLLFLSKNHLSSVPVGLPVDLQELRVDENRIAVISDMAFQNLTSLERLIVDGNLLTNKGIAEGTFSHLTKLKEFSIVRNSLSHPPPDLPGTHLIRLYLQDNQINHIPLTAFANLRKLERLDISNNQLRMLTQGVFDHLSNLKQLTARNNPWFCDCSIKWVTEWLKYIPSSLNVRGFMCQGPEQVRGMAVRELNMNLLSCPTTTPGLPVFTPAPSTVSPTTQSPTLSVPSPSRGSVPPAPTPSKLPTIPDWDGRERVTPPISERIQLSIHFVNDTSIQVSWLSLFTVMAYKLTWVKMGHSLVGGIVQERIVSGEKQHLSLVNLEPRSTYRICLVPLDAFNYRTVEDTICSEATTHASYLNNGSNTASSHEQTTSHSMGSPFLLAGLIGGAVIFVLVVLLSVFCWHMHKKGRYTSQKWKYNRGRRKDDYCEAGTKKDNSILEMTETSFQIVSLNNDQLLKGDFRLQPIYTPNGGINYTDCHIPNNMRYCNSSVPDLEHCHT
B2: Adhesion G protein-coupled receptor L3 (Mus musculus), Q80TS3 (parent)
chain: MWPPQLLILTMLLAPVVHGGKHNERHPALAAPLRHAERSPGGALPPRHLLQQPAAERSTAHRGQGPRGAARGVRGPGAPGAQIAAQAFSRAPIPMAVVRRELSCESYPIELRCPGTDVIMIESANYGRTDDKICDSDPAQMENIRCYLPDAYKIMSQRCNNRTQCAVVAGPDVFPDPCPGTYKYLEVQYECVPYKVEQKVFLCPGLLKGVYQSEHLFESDHQSGAWCKDPLQASDKIYYMPWTPYRTDTLTEYSSKDDFIAGRPTTTYKLPHRVDGTGFVVYDGALFFNKERTRNIVKFDLRTRIKSGEAIIANANYHDTSPYRWGGKSDIDLAVDENGLWVIYATEQNNGKIVISQLNPYTLRIEGTWDTAYDKRSASNAFMICGILYVVKSVYEDDDNEATGNKIDYIYNTDQSKDSLVDVPFPNSYQYIAAVDYNPRDNLLYVWNNYHVVKYSLDFGPLDSRSGPVHHGQVSYISPPIHLDSELERPPVRGISTTGSLGMGSTTTSTTLRTTTWNIGRSTTASLPGRRNRSTSTPSPAVEVLDDVTTHLPSAASQIPAMEESCEAVEAREIMWFKTRQGQVAKQPCPAGTIGVSTYLCLAPDGIWDPQGPDLSNCSSPWVNHITQKLKSGETAANIARELAEQTRNHLNAGDITYSVRAMDQLVGLLDVQLRNLTPGGKDSAARSLNKLQKRERSCRAYVQAMVETVNNLLQPQALNAWRDLTTSDQLRAATMLLDTVEESAFVLADNLLKTDIVRENTDNIQLEVARLSTEGNLEDLKFPENMGHGSTIQLSANTLKQNGRNGEIRVAFVLYNNLGPYLSTENASMKLGTEAMSTNHSVIVNSPVITAAINKEFSNKVYLADPVVFTVKHIKQSEENFNPNCSFWSYSKRTMTGYWSTQGCRLLTTNKTHTTCSCNHLTNFAVLMAHVEVKHSDAVHDLLLDVITWVGILLSLVCLLICIFTFCFFRGLQSDRNTIHKNLCISLFVAELLFLIGINRTDQPIACAVFAALLHFFFLAAFTWMFLEGVQLYIMLVEVFESEHSRRKYFYLVGYGMPALIVAVSAAVDYRSYGTDKVCWLRLDTYFIWSFIGPATLIIMLNVIFLGIALYKMFHHTAILKPESGCLDNINYEDNRPFIKSWVIGAIALLCLLGLTWAFGLMYINESTVIMAYLFTIFNSLQGMFIFIFHCVLQKKVRKEYGKCLRTHCCSGKSTESSIGSGKTSGSRTPGRYSTGSQSRIRRMWNDTVRKQSESSFITGDINSSASLNREGLLNNARDTSVMDTLPLNGNHGNSYSIAGGEYLSNCVQIIDRGYNHNETALEKKILKELTSNYIPSYLNNHERSSEQNRNMMNKLVNNLGSGSEDDAIVLDDAASFNHEESLGLELIHEESDAPLLPPRVYSTDNHQPHHYSRRRFPQDHSESFFPLLTDEHTEDLQSPHRDSLYTSMPALAGVPAADSVTTSTQTEAAAAKGGDAEDVYYKSMPNLGSRNHVHPLHAYYQLGRGSSDGFIVPPNKDGASPEGTSKGPAHLVTSL
partner: B1 chain

Variants of B1 are the subject of one test. The conditions noted are these: with agrl3_mouse Adgrl3, Q80TS3.
For R186N;D188T, the “effect of a mutation on the interaction” value is on record as “disrupting interaction strength”.

A further test covers variants of B2. The conditions noted are these: with flrt2_mouse Flrt2, Q8BLU0.
With T267N;K269T, the “effect of a mutation on the interaction” value is “decreasing interaction strength”. Same read-out and setting: next, R292N;R294T: “disrupting interaction strength”; R324N;G326T: “disrupting interaction strength”; P244N;R246T: “decreasing interaction strength”.

(Values after IntAct's records for PubMed 25728924.)
